Source: the supplement of paper PMC9112550, “Optimization of the antimicrobial peptide Bac7 by deep mutational scanning” (BMC Biology, 2022)

Tested on: Escherichia coli TOP10
Experiment: shrunken log2 fold change of peptide-encoding DNA abundance (4.5 h post-induction vs induction); higher = less antimicrobial activity (less host growth inhibition)
Details: time post-induction: 4.5 h; library: site-saturation at positions 5, 18, 19, 20
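Further: peptides expressed intracellularly from a pBAD plasmid library in pooled LB shake-flask culture, induced with 0.3% L-arabinose, DNA abundance read by NGS, three biological replicates, DESeq2 with apeglm shrinkage.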

| Sequence | shrunken log2 fold change |
| --- | --- |
| RRIRVRPPRLPRPRPRPTYCPRP | -0.327 |
| RRIRPRPPRLPRPRPRPVHGPRP | 0.0843 |
| RRIRVRPPRLPRPRPRPLCVPRP | 1.22 |
| RRIRQRPPRLPRPRPRPEVNPRP | -0.142 |
| RRIRDRPPRLPRPRPRPNNCPRP | -0.466 |
| RRIRWRPPRLPRPRPRPSSAPRP | 0.443 |
| RRIRKRPPRLPRPRPRPMCHPRP | -0.0182 |
| RRIRHRPPRLPRPRPRPPKIPRP | 0.282 |
| RRIRERPPRLPRPRPRPDHPPRP | -0.0179 |
| RRIRGRPPRLPRPRPRPPCYPRP | 0.265 |
| RRIRIRPPRLPRPRPRPYDRPRP | -0.499 |
| RRIRHRPPRLPRPRPRPSLHPRP | -0.652 |
| RRIRSRPPRLPRPRPRPDFIPRP | 0.00191 |
| RRIRTRPPRLPRPRPRPIDWPRP | 0.042 |
| RRIRQRPPRLPRPRPRPDHYPRP | -0.213 |
| RRIRERPPRLPRPRPRPEVAPRP | 0.907 |
| RRIRNRPPRLPRPRPRPRAWPRP | -0.054 |
| RRIRCRPPRLPRPRPRPNCPPRP | -0.413 |
| RRIRWRPPRLPRPRPRPYTWPRP | -0.397 |
| RRIRWRPPRLPRPRPRPSHPPRP | -0.0699 |
| RRIRGRPPRLPRPRPRPVHLPRP | 0.034 |
| RRIRNRPPRLPRPRPRPIEKPRP | -0.0498 |
| RRIRRRPPRLPRPRPRPGIFPRP | -0.174 |
| RRIRRRPPRLPRPRPRPGDQPRP | 0.272 |
| RRIRFRPPRLPRPRPRPRTVPRP | 0.086 |

| Sequence | shrunken log2 fold change |
| --- | --- |
| RRIRPRPPRLPRPRPRPMRCPRP | 0.221 |
| RRIRIRPPRLPRPRPRPIRWPRP | 0.0124 |
| RRIRGRPPRLPRPRPRPDKSPRP | 0.18 |
| RRIRPRPPRLPRPRPRPWSPPRP | 0.121 |
| RRIRVRPPRLPRPRPRPHWKPRP | -0.14 |
| RRIRYRPPRLPRPRPRPIEEPRP | 0.00911 |
| RRIRMRPPRLPRPRPRPPWEPRP | 0.601 |
| RRIRDRPPRLPRPRPRPDAIPRP | 0.903 |
| RRIRPRPPRLPRPRPRPHRIPRP | -0.414 |
| RRIRIRPPRLPRPRPRPIIFPRP | -0.667 |
| RRIRRRPPRLPRPRPRPWYVPRP | 0.0457 |
| RRIRARPPRLPRPRPRPHYMPRP | -0.381 |
| RRIRWRPPRLPRPRPRPAQYPRP | 0.122 |
| RRIRERPPRLPRPRPRPGHTPRP | -0.0164 |
| RRIRSRPPRLPRPRPRPYMQPRP | -0.145 |
| RRIRARPPRLPRPRPRPNMYPRP | -0.38 |
| RRIRVRPPRLPRPRPRPSNGPRP | -0.219 |
| RRIRCRPPRLPRPRPRPLPRPRP | 0.612 |
| RRIRSRPPRLPRPRPRPATMPRP | 0.00669 |
| RRIRMRPPRLPRPRPRPPRPPRP | 1.75 |
| RRIRHRPPRLPRPRPRPLREPRP | 0.819 |
| RRIRERPPRLPRPRPRPVLCPRP | 0.0605 |
| RRIRARPPRLPRPRPRPNYVPRP | -0.35 |
| RRIRKRPPRLPRPRPRPIAMPRP | 0.147 |
| RRIRVRPPRLPRPRPRPHLTPRP | -0.333 |

| Sequence | shrunken log2 fold change |
| --- | --- |
| RRIRWRPPRLPRPRPRPGDHPRP | -0.0565 |
| RRIRNRPPRLPRPRPRPQTHPRP | -0.217 |
| RRIRMRPPRLPRPRPRPSKWPRP | -0.104 |
| RRIRMRPPRLPRPRPRPRFAPRP | 0.728 |
| RRIRLRPPRLPRPRPRPHKNPRP | -0.256 |
| RRIRERPPRLPRPRPRPDAWPRP | 0.0128 |
| RRIRKRPPRLPRPRPRPWAWPRP | -0.00174 |
| RRIRPRPPRLPRPRPRPWWNPRP | -0.227 |
| RRIRFRPPRLPRPRPRPNMCPRP | -0.54 |
| RRIRHRPPRLPRPRPRPVCCPRP | -0.0885 |
| RRIRVRPPRLPRPRPRPQATPRP | 0.271 |
| RRIRWRPPRLPRPRPRPQTIPRP | 0.106 |
| RRIRTRPPRLPRPRPRPVEFPRP | 0.0128 |
| RRIRVRPPRLPRPRPRPVEIPRP | -0.0612 |
| RRIRYRPPRLPRPRPRPGDRPRP | 0.196 |
| RRIRERPPRLPRPRPRPTPQPRP | 0.246 |
| RRIRDRPPRLPRPRPRPEQVPRP | 0.015 |
| RRIRCRPPRLPRPRPRPCQAPRP | -0.244 |
| RRIRGRPPRLPRPRPRPVIVPRP | 0.626 |
| RRIRQRPPRLPRPRPRPPEYPRP | -0.245 |
| RRIRPRPPRLPRPRPRPWRRPRP | 0.142 |
| RRIRYRPPRLPRPRPRPPTEPRP | 0.183 |
| RRIRSRPPRLPRPRPRPHPPPRP | 0.436 |
| RRIRVRPPRLPRPRPRPPRYPRP | 0.317 |
| RRIRCRPPRLPRPRPRPWEIPRP | 0.0501 |
